From US20230123178A1 (Hoffmann-La Roche, published 2023)
Each block holds one binder with its values, some of them ahead of it.

Tests used:
[1] = target: T1, full-length human PD1 on cells (human, UniProt Q15116 25-288); test: cell-based or functional assay
[2] = target: T1, full-length human PD1 on cells; test: flow cytometry, activated human PBMCs, CD4 T cells
Method: (§1) Cells were further incubated for 2 days at 37° C. and 5% CO₂
(§2) For the binding assay 0.1×10⁶ fresh or activated PBMCs were added to each well of a round-bottom suspension cell 96-well plates (greiner bio-one, cellstar, Cat. No. 650185). Plates were centrifuged 5 minutes with 350×g and at 4° C. and supernatant were discarded. Afterwards cells were stained in 100 μL/well DPBS containing 1:5000 diluted fixable viability dye eF660 (eBioscience, Cat.-No. 65-0864-18) for 30 minutes at 4° C. in the dark. Cells were washed once with 200 μL ice cold cold DPBS buffer. Next, 50 μL/well of 4° C. cold FACS buffer (DPBS supplied with 2% FBS, 5 mM EDTA pH8 (Amresco, Cat. No. E177) and 7.5 mM Sodium azide (Sigma-Aldrich, Cat.-No. S2002)) containing titrated concentrations of construct 7.1, construct 7.3, construct 7.5 and construct 7.6 and as controls control B, control C, control D, control M and control F were added and cells were incubated for 60 minutes at 4° C., washed three times with 200 μL/well 4° C. FACS buffer. […] Data was analyzed using FlowJo V10 (FlowJo, LLC) and GraphPad Prism 6.04 (GraphPad Software, Inc)

[3] = target: T1, full-length human PD1 on cells; test: flow cytometry, activated human PBMCs, CD8 T cells
Method: as §1, §2

[4] = target: T1, full-length human PD1 on cells; test: flow cytometry, activated human PBMCs, CD19 cells
Method: as §1, §2

human 4-1BB on cells = target: T2, human 4-1BB on cells (human, UniProt Q07011 24-255); test: flow cytometry on HeLa-huCD137-NFkB-luc clone 26 cells; PE-conjugated anti-human IgG secondary; geo mean
T2 construct: whole, on cells; also called HeLa-hu4-1BB-NFkB-luc clone 26; HeLa-huCD137-NFkB-luc clone 26 cells
Method: Cells were washed once with 200 μL DPBS. Cells were resuspended in 100 μL/well of 4° C. cold DPBS buffer containing 1:5000 diluted Fixable Viability Dye eFluor 660 (eBioscience, Cat. No. 65-0864-18) and plates were incubated for 30 minutes at 4° C. Cells were washed once with 200 μL/well 4° C. cold DPBS buffer and resuspended in 50 μL/well of 4° C. cold FACS buffer (DPBS supplied with 2% FBS, 5 mM EDTA pH8 (Amresco, Cat. No. E177) and 7.5 mM Sodium azide (Sigma-Aldrich S2002)) containing PD1-targeted 4-1BB split trimeric ligand Fc fusion antigen binding molecules at a series of concentrations, followed by incubation for 1 hour at 4° C. After extensive washing, cells were further stained with 50 μL/well of 4° C. cold FACS buffer containing 5 μg/mL PE-conjugated AffiniPure anti-human IgG F(ab′)2-fragment-specific goat F(ab′)2 fragment (Jackson ImmunoResearch, Cat. No. 109 116 098) for 30 minutes at 4° C. Cells were washed twice with 200 μL/well 4° C. […] Data was analyzed using FlowJo V10 (FlowJo, LLC) and GraphPad Prism 6.04 (GraphPad Software, Inc).
(§3) Gates were set on living tumor cells and geo means of fluorescence intensity of PE-conjugated AffiniPure anti-human IgG IgG Fcγ-fragment-specific goat F(ab′)2 fragment were blotted against the titrated concentration of PD1-targeted 4-1BB split trimeric ligand Fc fusion antigen binding molecules or their controls.

[5] = target: T1, full-length human PD1 on cells; test: flow cytometry, freshly isolated resting human PBMCs (table title), γδ T cells
Method: as §2

[6] = target: T1, full-length human PD1 on cells; test: flow cytometry, activated human PBMCs, γδ T cells
Method: as §1, §2

[7] = target: T1, full-length human PD1 on cells; test: flow cytometry, freshly isolated resting human PBMCs (table title), CD4 T cells
Method: as §2

[8] = target: T1, full-length human PD1 on cells; test: flow cytometry on CHO-K1-huPD1 clone 5 cells
From the text: For binding assays on PD1 and 4-1BB expressing tumor cells two genetically modified tumor cells were used. The generation of human expressing HeLa-hu4-1BB-NFκB-luc clone 26 cells will be described in Example 5.3.1. For human PD1 expressing tumor cell lines, CHO-k1 cells were transfected with human PD1 as following: parental adherent CHO-K1 cell line (ATCC CCL-61) was stably transfected with plasmid 15311_hPD1-fl_pUC_Neo coding for full-length human PD1 and selection with G418 (Neomycin resistance marker on plasmid).
0.1×10⁶ tumor cells resuspended in DPBS (Gibco by Life Technologies, Cat. No. 14190 326) were added to each well of a round-bottom suspension cell 96-well plates (greiner bio-one, cellstar, Cat. No. 650185). Cells were washed once with 200 μL DPBS. Cells were resuspended in 100 μL/well of 4° C. cold DPBS buffer containing 1:5000 diluted Fixable Viability Dye eFluor 660 (eBioscience, Cat. No. 65-0864-18) and plates were incubated for 30 minutes at 4° C. […] Data was analyzed using FlowJo V10 (FlowJo, LLC) and GraphPad Prism 6.04 (GraphPad Software, Inc).
as §3

T1 sequence (Q15116 25-288 limits assumed): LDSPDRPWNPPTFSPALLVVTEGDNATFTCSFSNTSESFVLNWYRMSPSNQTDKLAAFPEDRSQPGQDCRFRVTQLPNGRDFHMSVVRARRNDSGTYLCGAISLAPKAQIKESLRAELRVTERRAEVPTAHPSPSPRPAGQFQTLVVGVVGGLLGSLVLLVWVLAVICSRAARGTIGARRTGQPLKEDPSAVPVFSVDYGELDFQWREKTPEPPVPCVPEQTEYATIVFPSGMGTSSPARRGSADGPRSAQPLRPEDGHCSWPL
T2 sequence (Q07011 24-255): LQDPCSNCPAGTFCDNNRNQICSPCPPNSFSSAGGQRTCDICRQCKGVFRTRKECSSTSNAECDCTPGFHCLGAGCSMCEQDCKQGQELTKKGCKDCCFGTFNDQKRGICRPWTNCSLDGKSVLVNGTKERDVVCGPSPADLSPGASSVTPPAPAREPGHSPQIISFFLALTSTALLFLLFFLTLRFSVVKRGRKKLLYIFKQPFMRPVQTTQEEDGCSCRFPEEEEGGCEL

Percentage of IFN gamma secretion in MLR against rec hu IL-2 (=100%), dilution 1:12 [1]: 103%
Percentage of IFN gamma secretion in MLR against rec hu IL-2 (=100%), dilution 1:120 [1]: 63%
Percentage of IFN gamma secretion in MLR against rec hu IL-2 (=100%), dilution 1:1200 [1]: 38%
B1: PD1-0073 (antibody, V domains shown)
VH: EVKLVESGGGLVKPGGSLKLSCAASGFTFSNYGMSWIRQTPEKGLEWVATISGGGRDTYYPDSVKGRFTISRDNVKNNLYLQMSSLRSEDTAFYYCASYYYGIDYWGQGTSVTVSS
VL: DIVMTQPHKFMSTSVGDRVRITCKASQDVTTAVAWYQQKPGQSPKLLIYWASTRHTGVPDRFTGSGSGTEFTLTISSVQAEDLALYYCQQHYSIPWTFGGGTKLEIK

Percentage of IFN gamma secretion in MLR against rec hu IL-2 (=100%), dilution 1:12 [1]: 136%
Percentage of IFN gamma secretion in MLR against rec hu IL-2 (=100%), dilution 1:120 [1]: 96%
Percentage of IFN gamma secretion in MLR against rec hu IL-2 (=100%), dilution 1:1200 [1]: 33%
B2: PD1-0050 (antibody, V domains shown)
VH: DVQLQESGPGLVKPSQSLSLTCTVTGYSITSDYAWNWIRQFPGNKLEWMGYITYTGRTSYNPSLKSRISITRDTSKNQFFLQLNSVTTEDTATYYCAREMDYYGSTLDYWGQGTTLTVSS
VL: KIVLTQSPASLAVSLRQRATISCRASESVDRYGNSFIHWYQQKPGQPPKVLIYRASNLESGFPARFSGSGSRTDFTLTIDPVEADDAATYYCQQNNEDPYTFGSGTKLEIK

Percentage of IFN gamma secretion in MLR against rec hu IL-2 (=100%), dilution 1:12 [1]: 76%
Percentage of IFN gamma secretion in MLR against rec hu IL-2 (=100%), dilution 1:120 [1]: 71%
Percentage of IFN gamma secretion in MLR against rec hu IL-2 (=100%), dilution 1:1200 [1]: 55%
B3: PD1-0069 (antibody, V domains shown)
VH: QVQLQQSGPELVRPGVSVKISCKGSGYTFTDYAMHWVKQSHARTLEWIGVISTYSGDTNYNQKFKDKATMTVDKSSSTAYLELARMTSEDSAIYYCARLGITTGFAYWGQGTLVTVSA
VL: DIVLTQSPASLAVSLGQRATISCRASKGVSTSSYSFMHWYQQKPRQPPKLLIKYASYLESGVPARFSGSGSGTDFTLNIHPVEEEDAATYYCHHSREFPWTFGGGTKLEIK

Percentage of IFN gamma secretion in MLR against rec hu IL-2 (=100%), dilution 1:12 [1]: 99%
Percentage of IFN gamma secretion in MLR against rec hu IL-2 (=100%), dilution 1:120 [1]: 72%
Percentage of IFN gamma secretion in MLR against rec hu IL-2 (=100%), dilution 1:1200 [1]: 21%
B4: PD1-0078 (antibody, V domains shown)
VH: QVQLQQPGAELVKPGASVKMSCKASGYTFTSTWMHWVKQRPGQGLEWIGAIDPSDSYTTYNQKFKGKATLTVDTSSTTAYMQLSSLTSEDSAVYYCTRSPFDYWGQGTTLTVSS
VL: DIVMTQSHKFMSTSVGDRVSITCKASQDVSTAVAWYQQKPGQSPKLLIYSASYRYTGVPDRFTGSGSGTDFTFAISSVQAEDLAVYYCQQHYSHPFTFGSGTKLEIK

EC50 [2]: 0.33 nM
EC50 [3]: 0.3 nM
EC50 [4]: 0.33 nM
binding result (human 4-1BB on cells): no binding (tested: ~300 nM)
EC50 [5]: 0.03 nM
EC50 [6]: 0.71 nM
EC50 [7]: 0.03 nM
EC50 [8]: 1.59 nM
B5: anti-PD1(0314) huIgG1 PGLALA (control M) (antibody, V domains shown)
VH: EVQLLESGGGLVQPGGSLRLSCAASGFSFSSYTMSWVRQAPGKGLEWVATISGGGRDIYYPDSVKGRFTISRDNSKNTLYLQMNSLRAEDTAVYYCVLLTGRVYFALDSWGQGTLVTVSS
VL: EIVLTQSPATLSLSPGERATLSCRASESVDTSDNSFIHWYQQKPGQSPRLLIYRSSTLESGIPARFSGSGSGTDFTLTISSLEPEDFAVYYCQQNYDVPWTFGQGTKVEIKR
notes: monospecific IgG1 of clone 0314; also called PD1 targeted human IgG control M
